Legend:
TMEM233 (human) [1] = target: TMEM233 (human) (UniProt B4DJY2)
TMEM233 (human) [2] = target: TMEM233 (human) (UniProt B4DJY2); experiment: fluorescent ligand binding to cells (plate reader); ExTxA-488 (1–300 nM) with mock- or TMEM233-transfected HEK293 and HEK293-NaV1.7 cells in suspension, 250 mM NaCl, 25 mM HEPES, pH 7, 30 min at 4 °C, washed three times; fluorescence intensity read in 384-well plate; EC50 told for NaV1.7/TMEM233 co-expressing cells

Alexa488-tagged excelsatoxin A (peptide), sequence (P0DQP3 38-73 limits assumed): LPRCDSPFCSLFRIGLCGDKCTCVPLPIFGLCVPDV
TMEM233 (human), sequence (B4DJY2 whole entry): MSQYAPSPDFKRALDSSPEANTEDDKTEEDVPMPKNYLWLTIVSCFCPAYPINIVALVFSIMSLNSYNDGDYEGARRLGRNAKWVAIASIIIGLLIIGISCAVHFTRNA

Alexa488-tagged excelsatoxin A (peptide)
EC50 of functional potency on NaV1.7 inactivation in NaV1.7/TMEM233 co-expressing cells (electrophysiology) (TMEM233 (human) [1]): 80.9 nM | EC50 (TMEM233 (human) [2]): 0.126 µM
